One experiment addresses T1, pure CaM (Sigma) (UniProt P62157 1-149).
T1 construct: pure calmodulin bought from Sigma; also called calmodulin; source: bought: Sigma
Put plainly: native gel or EMSA; 600 nM CaM incubated with different molar ratios of peptide; 10 mM Na-HEPES pH 7.2, 2 mM Ca2+, room temperature, 1 h; 12% non-denaturing PAGE with 2 mM Ca2+; silver staining (read-out: CaM band intensity, no mobility shift). To be noted: both partners purified. On the technique in general: Mobility shift assays separate free from complexed probe on a gel.

The next experiment addresses T2, CaM-agarose (Sigma) (UniProt P62157 1-149, coupled to agarose).
T2 construct: calmodulin coupled to agarose, bought from Sigma; Commercial reagent; also called calmodulin; source: bought: Sigma (CaM-agarose)
The experiment is described as follows: pull-down; competition: purified GST-C1A1 fragment on CaM-agarose with 200 μM peptide (CaMBD peptide, scrambled peptide or CALP2). The following applies: both partners purified.

B1: CaMBD peptide (peptide)
peptide: LWYLRKVDQRSTIVYPN
notes: also called WT peptide; the 17AA; source: synthetic peptide (Biomatik)
For B1, the binding result with pure CaM (Sigma) and with CaM-agarose (Sigma) was “binds” each time.

Values taken from paper PMC5362816, “Calmodulin is responsible for Ca^2+-dependent regulation of TRPA1 Channels” (Scientific Reports, 2017).
